Experimental data reported in US20240262870.

Target: hexa-histidine tagged ComP from A. baylyi ADP1 (ComPADP1)

B1: PglS oligosaccharyltransferase from A. baylyi ADP1 (PglSADP1) (protein)
chain: MNSIFKKIKNYTIVSGVFFLGSAFIIPNTSNLSSTLYKELIAVLGLLILLTVKSFDYKKILIPKNFYWFLFVIFIIFIQLIVGEIYFFQDFFFSISFLVILFLSFLLGFNERLNGDDLIVKKIAWIFIIVVQISFLIAINQKIEIVQNFFLFSSSYNGRSTANLGQPNQFSTLILITLFLLCYLREKNSLNNMVFNILSFCLIFANVMTQSRSAWISVILISLLYLLKFQKKIELRRVIFFNIVFWTLVYCVPLLFNLIFFQKNSYSTFDRLTMGSSRFEIWPQLLKAVFHKPFIGYGWGQTGVAQLETINKSSTKGEWFTYSHNLFLDLMLWNGFFIGLIISILILCFLIELYSSIKNKSDLFLFFCVVAFFVHCLLEYPFAYTYFLIPVGFLCGYISTQNIKNSISYFNLSKRKLTLFLGCCWLGYVAFWVEVLDISKKNEIYARQFLFSNHVKFYNIENYILDGFSKQLDFQYLDYCELKDKYQLLDFKKVAYRYPNASIVYKYYSISAEMKMDQKSANQIIRAYSVIKNQKIIKPKLKFCSIEY
In the case of B1, the “glycosylation of acceptor with K. pneumoniae K1 or K2 capsular polysaccharide, western blot” value is reported as “PglS was able to glycosylate ComP with the K1 and K2 capsular polysaccharides from K. pneumonia”.
